Biological target: T1, PD-L1蛋白 (human, UniProt Q9NZQ7 19-238, limits assumed)
T1 construct: also called 人PD-L1蛋白; CD274
Assay: competition ELISA: PD-L1 coated, biotinylated PD-1 at 1 ug/mL as competitor, HRP-streptavidin read-out

T1 sequence (Q9NZQ7 19-238 limits assumed): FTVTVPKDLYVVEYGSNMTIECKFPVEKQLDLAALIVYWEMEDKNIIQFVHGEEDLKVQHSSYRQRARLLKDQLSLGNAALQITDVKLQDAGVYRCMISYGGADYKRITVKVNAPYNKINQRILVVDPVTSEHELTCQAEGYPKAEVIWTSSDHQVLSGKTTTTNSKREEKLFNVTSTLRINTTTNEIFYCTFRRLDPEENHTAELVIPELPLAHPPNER

B1: 13H6D3 (antibody, V domains shown)
VH: QVQLQQPGADLVKPGASVKLSCKASGYTFTSNWMHWMKQRPGQGLDWIGMIHPNSAIKYNEKFKSRASLTADKSSSTAYMQLSSLTSEDSAVYYCARSYYGSSPYFFDYWGQGTTLTVSS
VL: DIQMTQTTSSLSASLGDRVTISCRASQDISKYLNWYQQKPDGTVKFLIYYTSRLHSGVPARFSGSGSGTDYFLTISNLEQEDVATYFCQQGDTLPWTFGGGTKLEIK
notes: Only variable domains are tied to the name; also called 克隆 13H6D3
IC50: 1.23 nM
